{"source": "the supplement of paper PMC6757056", "parents": {"B1": {"name": "library; a variant is named by its letters at N, in order (parent)", "chain": "GCUGUCACCGAGAAACUGUGAAGUAUAUCUUAAACCUGGGCACUUAAAAGAUAUAUGGAGUUAGUAGUGCAACCUGCUCGGUCUGAUGAGUCCNNNNNNGGACGAAACAGC"}}, "key": {"cyclic di-GMP [1]": {"variants_of": "B1", "assay": "FACS-Seq fitted mean relative fluorescence mCherry/BFP without ligand (log10 relative fluorescence); HEK293T; ligand: cyclic di-GMP (c-di-GMP-II aptamer); higher = higher reporter protein expression", "conditions": "ligand present: no", "outline": "(§1)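 Sorting into 6 bins by mCherry/BFP followed 48 h of incubation with or without ligand. The cells were enriched HEK293T libraries lentivirally bearing an mCherry reporter with the ribozyme switch and an EF1α-BFP marker, and bin genomic DNA was PCR-amplified, barcoded and sequenced on MiSeq. Fluorescence is the fitted normal mean of the bin counts. Means were fitted on log10(mCherry/BFP), scaled to five spiked-in control ribozymes.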"}, "cyclic di-GMP [2]": {"variants_of": "B1", "assay": "normalized RNA/DNA level without ligand (relative to sTRSVctl = 100) (log10 (% of sTRSVctl)); HEK293T; ligand: cyclic di-GMP (c-di-GMP-II aptamer); higher = less ribozyme self-cleavage, higher mRNA level", "conditions": "reporter: mCherry (pCS4076), ligand present: no", "outline": "(§2)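 Ribozyme switch library plasmids with mCherry reporters (eGFP in certain ligand experiments) went into HEK293T cells at 4 µg per 6-well well. Where ligand was used, it was applied 1 h before transfection, and total RNA was extracted with EDTA 72 h later for reverse transcription, amplification, barcoding and sequencing. RNA level is the RNA-to-DNA read ratio normalized to a spiked-in non-cleaving sequence or to the leading sequences, then scaled and log-transformed. Scaling was ×100 with log10, the leading set comprised 25 sequences, and the cutoff was ≥100 DNA reads.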"}, "cyclic di-GMP [3]": {"variants_of": "B1", "assay": "FACS-Seq fitted mean relative fluorescence mCherry/BFP with ligand (log10 relative fluorescence); HEK293T; ligand: cyclic di-GMP (c-di-GMP-II aptamer); ligand concentration (+) FACS-Seq: 1 mM; higher = higher reporter protein expression", "conditions": "ligand present: yes", "outline": "as §1"}, "cyclic di-GMP [4]": {"variants_of": "B1", "assay": "normalized RNA/DNA level with ligand (relative to sTRSVctl = 100) (log10 (% of sTRSVctl)); HEK293T; ligand: cyclic di-GMP (c-di-GMP-II aptamer); ligand concentration (+) RNA-Seq: 1 mM; higher = less ribozyme self-cleavage, higher mRNA level", "conditions": "reporter: mCherry (pCS4076), ligand present: yes", "outline": "as §2"}}, "note": "± gives the standard deviation of the averaged measurements."}
{"variant": "ACUAAG", "values": [{"measurement": "FACS-Seq fitted mean (log10)", "setting": "cyclic di-GMP [1]", "result": "-0.34 ± 0.089"}, {"measurement": "normalized RNA/DNA level without ligand (log10)", "setting": "cyclic di-GMP [2]", "result": "1.5 ± 0.12"}, {"measurement": "FACS-Seq fitted mean (log10)", "setting": "cyclic di-GMP [3]", "result": "-0.165 ± 0.11"}, {"measurement": "normalized RNA/DNA level with ligand (log10)", "setting": "cyclic di-GMP [4]", "result": "1.71 ± 0.026"}]}
{"variant": "ACUAAA", "values": [{"measurement": "FACS-Seq fitted mean (log10)", "setting": "cyclic di-GMP [1]", "result": "-0.416 ± 0.14"}, {"measurement": "normalized RNA/DNA level without ligand (log10)", "setting": "cyclic di-GMP [2]", "result": "1.41 ± 0.045"}, {"measurement": "FACS-Seq fitted mean (log10)", "setting": "cyclic di-GMP [3]", "result": "-0.0324 ± 0.021"}, {"measurement": "normalized RNA/DNA level with ligand (log10)", "setting": "cyclic di-GMP [4]", "result": "1.62 ± 0.088"}]}
{"variant": "ACUAAU", "values": [{"measurement": "FACS-Seq fitted mean (log10)", "setting": "cyclic di-GMP [1]", "result": "-0.784 ± 0.024"}, {"measurement": "normalized RNA/DNA level without ligand (log10)", "setting": "cyclic di-GMP [2]", "result": "1.47 ± 0.052"}, {"measurement": "FACS-Seq fitted mean (log10)", "setting": "cyclic di-GMP [3]", "result": "-0.433 ± 0.047"}, {"measurement": "normalized RNA/DNA level with ligand (log10)", "setting": "cyclic di-GMP [4]", "result": "1.68 ± 0.11"}]}
{"variant": "ACGUUU", "values": [{"measurement": "FACS-Seq fitted mean (log10)", "setting": "cyclic di-GMP [1]", "result": "-0.522 ± 0.028"}, {"measurement": "normalized RNA/DNA level without ligand (log10)", "setting": "cyclic di-GMP [2]", "result": "1.32 ± 0.16"}, {"measurement": "FACS-Seq fitted mean (log10)", "setting": "cyclic di-GMP [3]", "result": "-0.336 ± 0.035"}, {"measurement": "normalized RNA/DNA level with ligand (log10)", "setting": "cyclic di-GMP [4]", "result": "1.52 ± 0.078"}]}
{"variant": "ACUCCC", "values": [{"measurement": "FACS-Seq fitted mean (log10)", "setting": "cyclic di-GMP [1]", "result": "-0.621 ± 0.049"}, {"measurement": "normalized RNA/DNA level without ligand (log10)", "setting": "cyclic di-GMP [2]", "result": "1.77 ± 0.049"}, {"measurement": "FACS-Seq fitted mean (log10)", "setting": "cyclic di-GMP [3]", "result": "-0.284 ± 0.087"}, {"measurement": "normalized RNA/DNA level with ligand (log10)", "setting": "cyclic di-GMP [4]", "result": "1.87 ± 0.14"}]}
{"variant": "CCGCCA", "values": [{"measurement": "FACS-Seq fitted mean (log10)", "setting": "cyclic di-GMP [1]", "result": "-0.184 ± 0.045"}, {"measurement": "normalized RNA/DNA level without ligand (log10)", "setting": "cyclic di-GMP [2]", "result": "1.645 ± 0.0073"}, {"measurement": "FACS-Seq fitted mean (log10)", "setting": "cyclic di-GMP [3]", "result": "0.127 ± 0.058"}, {"measurement": "normalized RNA/DNA level with ligand (log10)", "setting": "cyclic di-GMP [4]", "result": "1.85 ± 0.14"}]}
{"variant": "GCCGGU", "values": [{"measurement": "FACS-Seq fitted mean (log10)", "setting": "cyclic di-GMP [1]", "result": "0.00404 ± 0.21"}, {"measurement": "normalized RNA/DNA level without ligand (log10)", "setting": "cyclic di-GMP [2]", "result": "1.63 ± 0.03"}, {"measurement": "FACS-Seq fitted mean (log10)", "setting": "cyclic di-GMP [3]", "result": "0.3204 ± 0.0024"}, {"measurement": "normalized RNA/DNA level with ligand (log10)", "setting": "cyclic di-GMP [4]", "result": "1.79 ± 0.087"}]}
{"variant": "GCUGGA", "values": [{"measurement": "FACS-Seq fitted mean (log10)", "setting": "cyclic di-GMP [1]", "result": "-0.599 ± 0.036"}, {"measurement": "normalized RNA/DNA level without ligand (log10)", "setting": "cyclic di-GMP [2]", "result": "1.49 ± 0.085"}, {"measurement": "FACS-Seq fitted mean (log10)", "setting": "cyclic di-GMP [3]", "result": "-0.196 ± 0.038"}, {"measurement": "normalized RNA/DNA level with ligand (log10)", "setting": "cyclic di-GMP [4]", "result": "1.71 ± 0.099"}]}
{"variant": "GCUGGU", "values": [{"measurement": "FACS-Seq fitted mean (log10)", "setting": "cyclic di-GMP [1]", "result": "-0.0949 ± 0.014"}, {"measurement": "normalized RNA/DNA level without ligand (log10)", "setting": "cyclic di-GMP [2]", "result": "1.6 ± 0.057"}, {"measurement": "FACS-Seq fitted mean (log10)", "setting": "cyclic di-GMP [3]", "result": "0.119 ± 0.16"}, {"measurement": "normalized RNA/DNA level with ligand (log10)", "setting": "cyclic di-GMP [4]", "result": "1.76 ± 0.099"}]}
{"variant": "CCGUAU", "values": [{"measurement": "FACS-Seq fitted mean (log10)", "setting": "cyclic di-GMP [1]", "result": "-0.719 ± 0.038"}, {"measurement": "normalized RNA/DNA level without ligand (log10)", "setting": "cyclic di-GMP [2]", "result": "1.5 ± 0.015"}, {"measurement": "FACS-Seq fitted mean (log10)", "setting": "cyclic di-GMP [3]", "result": "-0.441 ± 0.007"}, {"measurement": "normalized RNA/DNA level with ligand (log10)", "setting": "cyclic di-GMP [4]", "result": "1.69 ± 0.16"}]}
{"variant": "CCGUAA", "values": [{"measurement": "FACS-Seq fitted mean (log10)", "setting": "cyclic di-GMP [1]", "result": "-0.4729 ± 0.0036"}, {"measurement": "normalized RNA/DNA level without ligand (log10)", "setting": "cyclic di-GMP [2]", "result": "1.35 ± 0.17"}, {"measurement": "FACS-Seq fitted mean (log10)", "setting": "cyclic di-GMP [3]", "result": "-0.242 ± 0.019"}, {"measurement": "normalized RNA/DNA level with ligand (log10)", "setting": "cyclic di-GMP [4]", "result": "1.57 ± 0.082"}]}
{"variant": "CCGGCU", "values": [{"measurement": "FACS-Seq fitted mean (log10)", "setting": "cyclic di-GMP [1]", "result": "-0.0371 ± 0.0037"}, {"measurement": "normalized RNA/DNA level without ligand (log10)", "setting": "cyclic di-GMP [2]", "result": "1.74 ± 0.033"}, {"measurement": "FACS-Seq fitted mean (log10)", "setting": "cyclic di-GMP [3]", "result": "0.118 ± 0.024"}, {"measurement": "normalized RNA/DNA level with ligand (log10)", "setting": "cyclic di-GMP [4]", "result": "1.89 ± 0.077"}]}
{"variant": "UCUGGU", "values": [{"measurement": "FACS-Seq fitted mean (log10)", "setting": "cyclic di-GMP [1]", "result": "-0.364 ± 0.019"}, {"measurement": "normalized RNA/DNA level without ligand (log10)", "setting": "cyclic di-GMP [2]", "result": "1.66 ± 0.049"}, {"measurement": "FACS-Seq fitted mean (log10)", "setting": "cyclic di-GMP [3]", "result": "-0.0436 ± 0.031"}, {"measurement": "normalized RNA/DNA level with ligand (log10)", "setting": "cyclic di-GMP [4]", "result": "1.81 ± 0.044"}]}
{"variant": "CCUGGC", "values": [{"measurement": "FACS-Seq fitted mean (log10)", "setting": "cyclic di-GMP [1]", "result": "-0.646 ± 0.017"}, {"measurement": "normalized RNA/DNA level without ligand (log10)", "setting": "cyclic di-GMP [2]", "result": "1.68 ± 0.034"}, {"measurement": "FACS-Seq fitted mean (log10)", "setting": "cyclic di-GMP [3]", "result": "-0.459 ± 0.0093"}, {"measurement": "normalized RNA/DNA level with ligand (log10)", "setting": "cyclic di-GMP [4]", "result": "1.82 ± 0.14"}]}
{"variant": "GCUAGA", "values": [{"measurement": "FACS-Seq fitted mean (log10)", "setting": "cyclic di-GMP [1]", "result": "-0.35 ± 0.031"}, {"measurement": "normalized RNA/DNA level without ligand (log10)", "setting": "cyclic di-GMP [2]", "result": "1.49 ± 0.043"}, {"measurement": "FACS-Seq fitted mean (log10)", "setting": "cyclic di-GMP [3]", "result": "-0.116 ± 0.03"}, {"measurement": "normalized RNA/DNA level with ligand (log10)", "setting": "cyclic di-GMP [4]", "result": "1.67 ± 0.099"}]}
{"variant": "ACGUGU", "values": [{"measurement": "FACS-Seq fitted mean (log10)", "setting": "cyclic di-GMP [1]", "result": "-0.475 ± 0.012"}, {"measurement": "normalized RNA/DNA level without ligand (log10)", "setting": "cyclic di-GMP [2]", "result": "1.45 ± 0.097"}, {"measurement": "FACS-Seq fitted mean (log10)", "setting": "cyclic di-GMP [3]", "result": "-0.096 ± 0.051"}, {"measurement": "normalized RNA/DNA level with ligand (log10)", "setting": "cyclic di-GMP [4]", "result": "1.69 ± 0.078"}]}
{"variant": "ACGUGG", "values": [{"measurement": "FACS-Seq fitted mean (log10)", "setting": "cyclic di-GMP [1]", "result": "-0.532 ± 0.088"}, {"measurement": "normalized RNA/DNA level without ligand (log10)", "setting": "cyclic di-GMP [2]", "result": "1.56 ± 0.11"}, {"measurement": "FACS-Seq fitted mean (log10)", "setting": "cyclic di-GMP [3]", "result": "-0.352 ± 0.032"}, {"measurement": "normalized RNA/DNA level with ligand (log10)", "setting": "cyclic di-GMP [4]", "result": "1.74 ± 0.058"}]}
{"variant": "ACGUGA", "values": [{"measurement": "FACS-Seq fitted mean (log10)", "setting": "cyclic di-GMP [1]", "result": "-0.228 ± 0.016"}, {"measurement": "normalized RNA/DNA level without ligand (log10)", "setting": "cyclic di-GMP [2]", "result": "1.33 ± 0.052"}, {"measurement": "FACS-Seq fitted mean (log10)", "setting": "cyclic di-GMP [3]", "result": "-0.0284 ± 0.061"}, {"measurement": "normalized RNA/DNA level with ligand (log10)", "setting": "cyclic di-GMP [4]", "result": "1.54 ± 0.096"}]}
